# Values quoted from earlier work, collected in article PMC4134939.
# Biological target: ubiquitin (Homo sapiens) (UniProt P0CG47)
# Sequence of DNA polymerase iota UBM1 (Q9UNA4 513-557): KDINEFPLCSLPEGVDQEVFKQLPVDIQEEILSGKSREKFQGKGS
substance,measurement,value
DNA polymerase iota UBM1 (from UniProt Q9UNA4),Kd,130 µM
